Test results from PMC8944172 (Antiviral Research, 2022).

Molecular target: His-tagged RBD of SARS-CoV-2 (SARS-CoV-2, UniProt P0DTC2)
Experiment: SPR

Binder | binding result
REG10933 (antibody, V domains shown) VH: QVQLVESGGGLVKPGGSLRLSCAASGFTFSDYYMSWIRQAPGKGLEWVSYITYSGSTIYYADSVKGRFTISRDNAKSSLYLQMNSLRAEDTAVYYCARDRGTTMVPFDYWGQGTLVTVSS VL: DIQMTQSPSSLSASVGDRVTITCQASQDITNYLNWYQQKPGKAPKLLIYAASNLETGVPSRFSGSGSGTDFTFTISGLQPEDIATYYCQQYDNLPLTFGGGTKVEIK | binds
REG10987 (antibody, V domains shown) VH: QVQLVESGGGVVQPGRSLRLSCAASGFTFSNYAMYWVRQAPGKGLEWVAVISYDGSNKYYADSVKGRFTISRDNSKNTLYLQMNSLRTEDTAVYYCASGSDYGDYLLVYWGQGTLVTVSS VL: QSALTQPASVSGSPGQSITISCTGTSSDVGGYNYVSWYQQHPGKAPKLMIYDVSKRPSGVSNRFSGSKSGNTASLTISGLQSEDEADYYCNSLTSISTWVFGGGTKLTVL | binds
